How the values were obtained:
EDIII-DV3 [1] = biological target: T1, EDIII-DV3 (Dengue virus serotype 3, UniProt Q6YMS3 579-671); assay: SPR
T1 construct: also called EDIII of DV3; envelope glycoprotein domain III of Dengue virus serotype 3

EDIII-DV1 [2] = biological target: T2, EDIII-DV1 (Dengue virus serotype 1, UniProt P17763 581-673); assay: SPR
T2 construct: also called EDIII of DV1; envelope glycoprotein domain III of Dengue virus serotype 1

EDIII-DV3 [3] = biological target: T1, EDIII-DV3; assay: SPR; remark: listed apart in the source
EDIII-DV2 [4] = biological target: T3, EDIII-DV2 (Dengue virus serotype 2, UniProt P14337 581-673); assay: SPR
T3 construct: also called EDIII of DV2; envelope glycoprotein domain III of Dengue virus serotype 2

EDIII-DV1 [5] = biological target: T2, EDIII-DV1; assay: SPR; remark: listed apart in the source
[6] = biological target: T4, Dengue virus serotype 2 (DV2), envelope (E) glycoprotein on virus (Dengue virus serotype 2); assay: cell-based or functional assay
[7] = biological target: T5, Dengue virus serotype 1 (DV1), envelope (E) glycoprotein on virus (Dengue virus serotype 1); assay: cell-based or functional assay
[8] = biological target: T6, Dengue virus serotype 3 (DV3), envelope (E) glycoprotein on virus (Dengue virus serotype 3); assay: cell-based or functional assay
EDIII-DV3 [9] = biological target: T1, EDIII-DV3; assay: competition ELISA, equilibrium in solution
EDIII-DV2 [10] = biological target: T3, EDIII-DV2; assay: competition ELISA, equilibrium in solution
EDIII-DV1 [11] = biological target: T2, EDIII-DV1; assay: competition ELISA, equilibrium in solution
EDIII-DV3 [12] = biological target: T1, EDIII-DV3; assay: competition ELISA
EDIII-DV2 [13] = biological target: T3, EDIII-DV2; assay: competition ELISA
EDIII-DV1 [14] = biological target: T2, EDIII-DV1; assay: competition ELISA
EDIII-DV2 [15] = biological target: T3, EDIII-DV2; assay: indirect ELISA, coated recombinant EDIII
EDIII-DV3 [16] = biological target: T1, EDIII-DV3; assay: indirect ELISA, coated recombinant EDIII
EDIII-DV4 [17] = biological target: T7, EDIII-DV4 (Dengue virus serotype 4, UniProt P09866 580-672); assay: indirect ELISA, coated recombinant EDIII
EDIII-DV1 [18] = biological target: T2, EDIII-DV1; assay: indirect ELISA, coated recombinant EDIII
EDIII-DV2 [19] = biological target: T3, EDIII-DV2; assay: SPR; remark: listed apart in the source
[20] = biological target: T4, Dengue virus serotype 2 (DV2), envelope …; assay: cell-based or functional assay; remark: listed apart in the source
[21] = biological target: T5, Dengue virus serotype 1 (DV1), envelope …; assay: cell-based or functional assay; remark: listed apart in the source
[22] = biological target: T6, Dengue virus serotype 3 (DV3), envelope …; assay: cell-based or functional assay; remark: listed apart in the source
[23] = biological target: Dengue virus serotype 4 (DV4), envelope (E) glycoprotein on virus (Dengue virus serotype 4); assay: cell-based or functional assay
EDIII-DV4 [24] = biological target: T7, EDIII-DV4; assay: competition ELISA, equilibrium in solution
EDIII-DV4 [25] = biological target: T7, EDIII-DV4; assay: calculated from KD, ΔG = RTln(KD) at 25° C

B1: 4E11 WT (antibody, V domains shown)
VH: VKLLEQSGAELVKPGASVRLSCTASGFNIKDTYMSWVKQRPEQGLEWIGRIDPANGDTKYDPKFQGKATITADTSSNTAYLHLSSLTSGDTAVYYCSRGWEGFAYWGQGTLVTVSA
VL: ELVMTQTPASLAVSLGQRATISCRASENVDRYGNSFMHWYQQKAGQPPKLLIYRASNLESGIPARFSGSGSRTDFTLTINPVEADDVATYFCQRSNEVPWTFGGGTKLEIKR
notes: also called wt 4E11; WT 4E11
Kd (EDIII-DV3 [1]): 7.58 nM
Kd (EDIII-DV1 [2]): 0.5 nM
koff (EDIII-DV3 [3]): 0.0102 s⁻¹
kon (EDIII-DV3 [3]): 1.34e+06 M⁻¹ s⁻¹
koff (EDIII-DV2 [4]): 0.0123 s⁻¹
kon (EDIII-DV2 [4]): 1.98e+06 M⁻¹ s⁻¹
koff (EDIII-DV1 [5]): 0.000551 s⁻¹
kon (EDIII-DV1 [5]): 1.11e+06 M⁻¹ s⁻¹
IC50 (read off the curve) [6]: ~0.03 µg/mL
IC50 (read off the curve) [7]: ~0.06 µg/mL
IC50 (read off the curve) [8]: ~0.5 µg/mL
Kd (EDIII-DV3 [9]): 21.8 nM
Kd (EDIII-DV2 [10]): 5.2 nM
Kd (EDIII-DV1 [11]): 0.328 nM
Kd (EDIII-DV3 [12]): 21.8 nM
Kd (EDIII-DV2 [13]): 5.2 nM
Kd (EDIII-DV1 [14]): 0.328 nM

B2: 4E11 VL-R31K single mutant (antibody, V domains shown)
VH: VKLLEQSGAELVKPGASVRLSCTASGFNIKDTYMSWVKQRPEQGLEWIGRIDPANGDTKYDPKFQGKATITADTSSNTAYLHLSSLTSGDTAVYYCSRGWEGFAYWGQGTLVTVSA
VL: ELVMTQTPASLAVSLGQRATISCRASENVDKYGNSFMHWYQQKAGQPPKLLIYRASNLESGIPARFSGSGSRTDFTLTINPVEADDVATYFCQRSNEVPWTFGGGTKLEIKR
binding result (EDIII-DV2 [15]): binds

B3: 4E11 VL-S60W single mutant (antibody, V domains shown)
VH: VKLLEQSGAELVKPGASVRLSCTASGFNIKDTYMSWVKQRPEQGLEWIGRIDPANGDTKYDPKFQGKATITADTSSNTAYLHLSSLTSGDTAVYYCSRGWEGFAYWGQGTLVTVSA
VL: ELVMTQTPASLAVSLGQRATISCRASENVDRYGNSFMHWYQQKAGQPPKLLIYRASNLEWGIPARFSGSGSRTDFTLTINPVEADDVATYFCQRSNEVPWTFGGGTKLEIKR
binding result (EDIII-DV2 [15]): binds

B4: 4E11 VL Ser60Arg single mutant (antibody, V domains shown)
VH: VKLLEQSGAELVKPGASVRLSCTASGFNIKDTYMSWVKQRPEQGLEWIGRIDPANGDTKYDPKFQGKATITADTSSNTAYLHLSSLTSGDTAVYYCSRGWEGFAYWGQGTLVTVSA
VL: ELVMTQTPASLAVSLGQRATISCRASENVDRYGNSFMHWYQQKAGQPPKLLIYRASNLERGIPARFSGSGSRTDFTLTINPVEADDVATYFCQRSNEVPWTFGGGTKLEIKR
notes: also called S60R
binding result (EDIII-DV3 [16]): binds
binding result (EDIII-DV2 [15]): binds
binding result (EDIII-DV4 [17]): binds
binding result (EDIII-DV1 [18]): binds

B5: 4E5A (antibody, V domains shown)
VH: VKLLEQSGAELVKPGASVRLSCTASGFNIKDTYMSWVKQRPEQGLEWIGRIDPENGDTKYDPKFQGKATITADTSSNTAYLHLSSLTSGDTAVYYCSRGWEGFAYWGQGTLVTVSA
VL: ELVMTQTPASLAVSLGQRATISCRASENVDKYGNSFMHWYQQKAGQPPKLLIYRASELQWGIPARFSGSGSRTDFTLTINPVEADDVATYFCQRSNEVPWTFGGGTKLEIKR
notes: also called 4E11-5A; quintuple mutant antibody
Kd (EDIII-DV2 [19]): 0.7 nM
FRNT50 [20]: 0.028 µg/mL
FRNT50 [21]: 0.19 µg/mL
FRNT50 [22]: 0.77 µg/mL
FRNT50 [23]: 4 µg/mL

B6: 4E11 VL-N57E single mutant (antibody, V domains shown)
VH: VKLLEQSGAELVKPGASVRLSCTASGFNIKDTYMSWVKQRPEQGLEWIGRIDPANGDTKYDPKFQGKATITADTSSNTAYLHLSSLTSGDTAVYYCSRGWEGFAYWGQGTLVTVSA
VL: ELVMTQTPASLAVSLGQRATISCRASENVDRYGNSFMHWYQQKAGQPPKLLIYRASELESGIPARFSGSGSRTDFTLTINPVEADDVATYFCQRSNEVPWTFGGGTKLEIKR
Kd (EDIII-DV4 [24]): 8410 nM
ΔG (EDIII-DV4 [25]): -6.92 kcal/mol
ΔΔG (ΔGmutant - ΔGWT) (EDIII-DV4 [25]): -0.93 kcal/mol

B7: 4E11 VH-A55E single mutant (antibody, V domains shown)
VH: VKLLEQSGAELVKPGASVRLSCTASGFNIKDTYMSWVKQRPEQGLEWIGRIDPENGDTKYDPKFQGKATITADTSSNTAYLHLSSLTSGDTAVYYCSRGWEGFAYWGQGTLVTVSA
VL: ELVMTQTPASLAVSLGQRATISCRASENVDRYGNSFMHWYQQKAGQPPKLLIYRASNLESGIPARFSGSGSRTDFTLTINPVEADDVATYFCQRSNEVPWTFGGGTKLEIKR
Kd (EDIII-DV4 [24]): 4440 nM
ΔG (EDIII-DV4 [25]): -7.29 kcal/mol
ΔΔG (ΔGmutant - ΔGWT) (EDIII-DV4 [25]): -1.31 kcal/mol

B8: 4E11 VL Asn57Ser single mutant (antibody, V domains shown)
VH: VKLLEQSGAELVKPGASVRLSCTASGFNIKDTYMSWVKQRPEQGLEWIGRIDPANGDTKYDPKFQGKATITADTSSNTAYLHLSSLTSGDTAVYYCSRGWEGFAYWGQGTLVTVSA
VL: ELVMTQTPASLAVSLGQRATISCRASENVDRYGNSFMHWYQQKAGQPPKLLIYRASSLESGIPARFSGSGSRTDFTLTINPVEADDVATYFCQRSNEVPWTFGGGTKLEIKR
binding result (EDIII-DV3 [16]): binds
binding result (EDIII-DV2 [15]): binds
binding result (EDIII-DV4 [17]): binds
binding result (EDIII-DV1 [18]): binds

B9: 4E11 VH Ala55Asp single mutant (antibody, V domains shown)
VH: VKLLEQSGAELVKPGASVRLSCTASGFNIKDTYMSWVKQRPEQGLEWIGRIDPDNGDTKYDPKFQGKATITADTSSNTAYLHLSSLTSGDTAVYYCSRGWEGFAYWGQGTLVTVSA
VL: ELVMTQTPASLAVSLGQRATISCRASENVDRYGNSFMHWYQQKAGQPPKLLIYRASNLESGIPARFSGSGSRTDFTLTINPVEADDVATYFCQRSNEVPWTFGGGTKLEIKR
notes: also called A55D
binding result (EDIII-DV3 [16]): binds
binding result (EDIII-DV2 [15]): binds
binding result (EDIII-DV4 [17]): binds
binding result (EDIII-DV1 [18]): binds

B10: 4E11 VL Glu59Asn single mutant (antibody, V domains shown)
VH: VKLLEQSGAELVKPGASVRLSCTASGFNIKDTYMSWVKQRPEQGLEWIGRIDPANGDTKYDPKFQGKATITADTSSNTAYLHLSSLTSGDTAVYYCSRGWEGFAYWGQGTLVTVSA
VL: ELVMTQTPASLAVSLGQRATISCRASENVDRYGNSFMHWYQQKAGQPPKLLIYRASNLNSGIPARFSGSGSRTDFTLTINPVEADDVATYFCQRSNEVPWTFGGGTKLEIKR
notes: also called E59N
binding result (EDIII-DV3 [16]): binds
binding result (EDIII-DV2 [15]): binds
binding result (EDIII-DV4 [17]): binds
binding result (EDIII-DV1 [18]): binds

B11: 4E11 VL Ser60Tyr single mutant (antibody, V domains shown)
VH: VKLLEQSGAELVKPGASVRLSCTASGFNIKDTYMSWVKQRPEQGLEWIGRIDPANGDTKYDPKFQGKATITADTSSNTAYLHLSSLTSGDTAVYYCSRGWEGFAYWGQGTLVTVSA
VL: ELVMTQTPASLAVSLGQRATISCRASENVDRYGNSFMHWYQQKAGQPPKLLIYRASNLEYGIPARFSGSGSRTDFTLTINPVEADDVATYFCQRSNEVPWTFGGGTKLEIKR
notes: also called S60Y
binding result (EDIII-DV3 [16]): binds
binding result (EDIII-DV2 [15]): binds
binding result (EDIII-DV4 [17]): binds
binding result (EDIII-DV1 [18]): binds

B12: 4E11 VL-E59Q single mutant (antibody, V domains shown)
VH: VKLLEQSGAELVKPGASVRLSCTASGFNIKDTYMSWVKQRPEQGLEWIGRIDPANGDTKYDPKFQGKATITADTSSNTAYLHLSSLTSGDTAVYYCSRGWEGFAYWGQGTLVTVSA
VL: ELVMTQTPASLAVSLGQRATISCRASENVDRYGNSFMHWYQQKAGQPPKLLIYRASNLQSGIPARFSGSGSRTDFTLTINPVEADDVATYFCQRSNEVPWTFGGGTKLEIKR
Kd (EDIII-DV4 [24]): 11000 nM
binding result (EDIII-DV2 [15]): binds
ΔG (EDIII-DV4 [25]): -6.76 kcal/mol
ΔΔG (ΔGmutant - ΔGWT) (EDIII-DV4 [25]): -0.77 kcal/mol

Reference: patent publication US20200264176A1 (MIT, published 2020)
